In paper PMC7935953, “Insights on autophagosome–lysosome tethering from structural and biochemical characterization of human autophagy factor EPG5” (Communications Biology, 2021):
Where no end group is shown, it is not given here.

What was measured:
GABARAP = target: T1, GABARAP (Homo sapiens, UniProt O95166); experiment: GST pull-down of hEPG5 (wild type and mutants) with GST-GABARAP bait; format: binding; conditions: anti-FLAG western blot, compared to wild-type hEPG5, triplicates
T1 construct: made in house; host or cells: E. coli (T7 Express)
Experimental: (§1) For GST pull-down analysis, N-terminally GST-tagged LC3 and GABARAP proteins were expressed in Escherichia coli (T7 Express) cells. The cells were induced with 1 mM isopropyl β-d-1-thiogalacpyranoside [IPTG] for 4 h at 25 °C. The cell pellets were resuspended in 25 mL buffer E (50 mM Tris pH 8.0, 150 mM NaCl, and 1 mM PMSF). Cells were then sonicated for four cycles consisting of 1 min sonication followed by 2 min cooling on ice, with duty cycle set to 50% and output control at 5. Cell lysate was then centrifuged at 20,950 × g for 40 min at 4 °C. Supernatant was incubated for 1 h at 4 °C with glutathione resin (50% slurry, GenScript) pre-equilibrated with buffer E, while gently inverting. Resin was returned to the column and washed with buffer E. Proteins were eluted with 10 mM reduced glutathione (GoldBio) in buffer F (50 mM Tris pH 8.0, 150 mM NaCl). Free glutathione was removed by dialysis in buffer F and protein concentration was measured by spectrophotometry (NanoDrop, Thermo Scientific). Glycerol was added to a final concentration of 5%, then solutions were aliquoted and stored at −70 °C.
Pulldowns were performed with a 50 µL slurry of glutathione resin (50% slurry, GenScript). The resin was equilibrated with buffer N (50 mM Tris pH 8.0, 150 mM NaCl, 5% glycerol, 0.01% Tween20, and 0.5 mM DTT) and the beads were incubated with equal amounts (200–240 µg) of purified GST, GST-LC3A/B/C, and GST-GABARAP/L1/L2 bait for 10 min at 4 °C with gentle inversion. The tubes were centrifuged at 500 × g for 2 min, followed by removal of excess bait protein in the supernatant. The resin was then incubated with equal amounts (25–30 µg) of purified His-FLAG-hEPG5, truncated hEPG5 or its corresponding mutants (W550A, W567A, W550A/W567A, F794A, or Q336R). The tubes were once again centrifuged at 500 × g for 2 min, followed by removal of the supernatant. The resin was washed with 1 mL buffer N, centrifuged at 500 × g for 2 min, followed by removal of the excess buffer with five washes. After the final wash and removal of the supernatant, 50 µL 2× SDS loading dye was added to each tube. The tubes were then heated at 65 °C for 10 min, loaded onto two 6–15% gradient SDS–PAGE gels, and stained with Coomassie Blue. For western blots, samples were transferred from a 6–15% gradient SDS–PAGE gel to a nitrocellulose membrane and blocked with Odyssey Blocking Buffer (LI-COR). Mouse anti-FLAG was used as the primary antibody (1:2000; Sigma-Aldrich) and donkey anti-mouse IRDye 680LT as the secondary antibody (1:7500; LI-COR) for visualization on a ChemiDoc Imager (Bio-Rad). Experiments were performed in triplicates.
All experiments were performed in triplicates. ITC data represents means or means ± SEM. Intensity of His-FLAG-hEPG5, GST (control), and GST-LC3/GABARAP subfamily proteins in pull-down assays was quantified using Bio-Rad Image Lab Software v6.0. Statistics were performed using Prism 7 (GraphPad).

[1] = Differential scanning fluorimetry (thermal shift assay) of hEPG5; format: physicochemical; conditions: 0.4 mg/mL protein, 10× Sypro Orange, 50 mM Tris pH 8.0, 150 mM NaCl, maximum of first derivative, triplicates
Experimental: Purified wild type His-FLAG-hEPG5 and His-FLAG-hEPG5^Q336R at 0.4 mg/mL were mixed with 10× Sypro Orange dye in buffer F in a final volume of 25 µL. The fluorescence was measured using the MiniOpticon Real-Time PCR system in triplicates. Melting temperature was calculated using the maximum of the first derivative with Prism 7 (GraphPad).

LC3C = target: T2, LC3C (Homo sapiens, UniProt Q9BXW4); experiment: ITC of hEPG5 LIR peptides titrated into His-LC3C; format: binding; conditions: 0.6 mM peptide into 0.06 mM His-LC3C, 20 steps, 25 °C, 50 mM Tris pH 7.0, 25 mM NaCl, one-site model, triplicates
T2 construct: made in house; host or cells: E. coli (T7 Express)
Experimental: (§2) For ITC studies, N-terminally His-tagged LC3 and GABARAP proteins were expressed in E. coli (T7 Express) cells. The cells were induced with 1 mM IPTG for 4 h at 25 °C. The cell pellets were resuspended, sonicated, and centrifuged, as described above with buffer G (50 mM Tris pH 7.0, 150 mM NaCl, and 2 mM PMSF). The supernatant was incubated with HisPur^TMNi-NTA resin (Thermo Scientific) pre-equilibrated with buffer G at 4 °C for 1 h. The resin was washed five times with buffer H (50 mM Tris pH 7.0, 150 mM NaCl) and subsequently ten times with buffer H containing 30 mM imidazole. The bound proteins were eluted with buffer H containing 100 mM imidazole once, then 300 mM imidazole for four times, and 500 mM imidazole once. […]
(§3) ITC experiments of hEPG5-LIR1 peptide titrating into His-LC3/GABARAP proteins were performed using ITC200 (GE Healthcare now Malvern Panalytical), while experiments of hEPG5-LIR2 peptide titrating into His-LC3/GABARAP proteins were performed using MicroCal PEAQ-ITC (Malvern Panalytical). […] The ITC data were analyzed with one-site binding model using Origin 7.0 (OriginLab). […]
(§4) All experiments were performed in triplicates. […] Intensity of His-FLAG-hEPG5, GST (control), and GST-LC3/GABARAP subfamily proteins in pull-down assays was quantified using Bio-Rad Image Lab Software v6.0. […]

LC3B = target: T3, LC3B (Homo sapiens, UniProt Q9GZQ8); experiment: ITC of hEPG5 LIR peptides titrated into His-LC3B; format: binding; conditions: 0.6 mM peptide into 0.06 mM His-LC3B, 20 steps, 25 °C, 50 mM Tris pH 7.0, 25 mM NaCl, one-site model, mean of triplicates
T3 construct: made in house; host or cells: E. coli (T7 Express)
Experimental: as §2, §3, §4

[2] = system: GABARAP subfamily (GABARAP, GABARAPL1, and GABARAPL2); experiment: GST pull-down of hEPG5, average over GABARAP subfamily baits; format: binding, human
Experimental: as §1
Pulldowns were performed with a 50 µL slurry of glutathione resin (50% slurry, GenScript). […]
as §4

T1 sequence (O95166 whole entry): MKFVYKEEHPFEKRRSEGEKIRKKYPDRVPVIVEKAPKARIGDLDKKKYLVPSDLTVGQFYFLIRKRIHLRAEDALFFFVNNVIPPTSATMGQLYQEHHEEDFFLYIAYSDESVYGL
T2 sequence (Q9BXW4 whole entry): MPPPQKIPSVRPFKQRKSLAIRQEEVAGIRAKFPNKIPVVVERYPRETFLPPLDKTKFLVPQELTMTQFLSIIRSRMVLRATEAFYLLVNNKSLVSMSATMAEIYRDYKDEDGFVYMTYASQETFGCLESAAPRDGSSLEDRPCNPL

Substance | binding to GABARAP in GST pull-down, in words (GABARAP) | other results
W550A: hEPG5 mutant, first aromatic residue of LIR1 replaced by alanine | severely | –
hEPG5^Δ1–548: hEPG5 truncation devoid of the region between the N-terminus and the two LIR motifs | precipitated by GABARAP at a higher level compared to wild-type hEPG5 | –
hEPG5^Δ1770–2579: hEPG5 truncation mutant which excludes the entire C-terminal region | binds GABARAP equally well compared to wild-type hEPG5 | –
W567A: hEPG5 mutant, first aromatic residue of LIR2 replaced by alanine | mildly | –
hEPG5^Q336R: hEPG5 carrying the Vici syndrome mutation Gln336Arg | did not affect hEPG5’s ability to bind to GABARAP and other human ATG8 proteins | melting temperature higher than wild-type hEPG5 [1]: ~1.5 °C
W550A/W567A: hEPG5 double mutant of both tandem LIR motifs | completely abolished GABARAP binding | –
GSGTWTLVDEG [LIR1] | – | Kd with LC3C (LC3C): bind weakly; Kd with LC3B (LC3B): bind weakly
hEPG5: recombinant full-length human EPG5, His-FLAG tagged, expressed in a baculovirus-insect cell system | – | hEPG5 precipitated by GABARAP subfamily compared to LC3 subfamily ([2]; fluorescence-based western blotting, triplicates): 2.5 times; Average Ratio of GABARAP Family: LC3 Family ([2]; hEPG5 binding ratio, average of 3 runs): 2.51
hEPG5^F794A: hEPG5 mutant with mutation to the third putative LIR motif | binds GABARAP as strongly as wild-type hEPG5 | –
